Data as given in paper PMC7933130 (Nature, 2021).

Target: the molecule itself
Assay: SEC-MALS

B1: human Na+-dependent citrate transporter NaCT (SLC13A5), wildtype (natural protein)
chain: not shown
modifications: one glycan unit connected to Asn562 (N-glycosylation site)
  stoichiometry N: 2
